The results in this text go back to the supplement of paper PMC9170038.

This series deals with MS2 coat protein. Put plainly: apparent KD of MS2 coat protein; higher = weaker reporter binding. The note with it: Eterna round: R107. Here is the method: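 RNA-MaP round R107: designed RNA switches with theophylline, tryptophan, arginine or FMN aptamers are transcribed on-chip within common flanks. They are titrated with SNAP-549-labelled MS2 coat protein in RNA-MaP buffer (100 mM Tris pH 7.5, 80 mM KCl, 4 mM MgCl2), without ligand or with the indicated ligand. Median apparent KD per design.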

The mark [1] stands for this setting: input ligand: theophylline 20 uM.
Where [2] appears, read: input ligand: theophylline 2 mM.
Setting [3] is: input ligand: tryptophan 2.4 mM.

For the sequence “AAUUAUCAGUCGGCCGCCACUGACACAUGAGGAUCACCCAUGUAACUUGGGAUAAAUUUAAUAAACAGGACCGGGACAAAGGCUA [JR_ExcTryptoB_Sub011]”, the “apparent KD of MS2 coat protein” value runs as follows: (input ligand: arginine 13.2 mM) 36.6 nM; under setting [1], 50.7 nM; under setting [2], 49.9 nM.

With “AAUUAUUUCUCAAUUAUUUAAUCUUCAGAAGGAGCGUGAUGAUUCACAGGUAGGUCGCUGAUGACAUGAGGAUCACCCAUGUAUU [JR_SSArginiA_Sub003]”, the “apparent KD of MS2 coat protein” value runs as follows: (input ligand: arginine 13.2 mM) 30.6 nM; (input ligand: none) 30.1 nM; under setting [1], 31.1 nM; under setting [2], 29.1 nM; under setting [3], 27.5 nM.

On to “AAUUCCGGGUCGGCCGCCACUGAUAUGGCGAGUCCUCGAACUUACAUGAGGAUCACCCAUGUAAACAGGACCGGGACCGCAUGGG [Exclusion Tryptophan B GF 23]”, for which the “apparent KD of MS2 coat protein” value came to 16.3 nM (input ligand: arginine 13.2 mM), 28.4 nM under setting [1] and 20.4 nM under setting [2].

For “AAUUCCUAACAUGAGGAUCACCCAUGUGAAGGAGCGCGGAAUAACGCAGGUAGGUCGCACAUGGAACCGCUGCGAUAGCAGCAAA [MAT - Exclusion Arginine A - Mod of Eli - D29]”, the “apparent KD of MS2 coat protein” value runs as follows: (input ligand: arginine 13.2 mM) 8.66 nM; (input ligand: none) 14.4 nM; under setting [1], 13.3 nM; under setting [2], 14 nM; under setting [3], 12.5 nM.

As for “AAUUUAAACGGAAGGAGCGUCACUUAAUAUCAACAUGAGGAUCACCCAUGUAAGGGUUGUAGACAGGUAGGUCGCCGUCAUUUGA [JR_AAArginiB_Sub023]”, the “apparent KD of MS2 coat protein” value came to 36.3 nM (input ligand: arginine 13.2 mM); 39.2 nM (input ligand: none); 50.6 nM under setting [1]; 41.9 nM under setting [2]; 35.4 nM under setting [3].

In the case of “AAUUUCGUAGGUAAAAGUUUAGAAACUGAAGGAGCGUGGUAUUACACAGGUAGGUCGCAGAUUUUACAUGAGGAUCACCCAUGUU [JR_SSArginiA_Sub008]”, the “apparent KD of MS2 coat protein” value was determined as 20.6 nM (input ligand: arginine 13.2 mM); 22.1 nM (input ligand: none); 22 nM under setting [1]; 21.7 nM under setting [2]; 22.8 nM under setting [3].

In the case of “ACAAGAGGGAUGGAUACCAGCGACAUGAGGAUCACCCAUGUAUGAGGAUCAGCCAUGUUAUGCCCUUGGCAGCCACGAACAUCAG [SSAMULLIN]”, the “apparent KD of MS2 coat protein” value was 27.5 nM (input ligand: arginine 13.2 mM); 21.2 nM (input ligand: none); 30.8 nM under setting [1]; 125 nM under setting [2]; 18.2 nM under setting [3].

On to “ACAAGAGGUGGAAGGAGCGGGAGACAUGAGGAUCACCCAUGUGAAGUUUCGAGAGGAUCAUCCCAGGUAGGUCGCCAUGUCGAAA [ojjomullin]”, for which the “apparent KD of MS2 coat protein” value by setting is: (input ligand: arginine 13.2 mM) 199 nM; (input ligand: none) 41.7 nM; under setting [1], 84.1 nM; under setting [2], 228 nM; under setting [3], 49.7 nM.

For the sequence “ACAAUAUUGAGUUUGUCUCAAGUUUCAGAAGGAGCGUGAGGAAUCACAGGUAGGUCGCUGAUAACAUGAGGAUCACCCAUGUAUU [JR_SSArginiA_Sub005]”, the “apparent KD of MS2 coat protein” value is 26.1 nM (input ligand: arginine 13.2 mM); 35.7 nM (input ligand: none); 43.1 nM under setting [1]; 45.1 nM under setting [2]; 35 nM under setting [3].

Turning to “ACACAAUACAUGAGGAUCACCCAUGUAAAACGAGGACCGGUACGGCCGCCACUCGAAUACAGGAAACCUCGGAAUAUUAAGUGAA [JR_ExcTryptA_Sub001]”, the “apparent KD of MS2 coat protein” value is 26.9 nM (input ligand: arginine 13.2 mM), 64.1 nM under setting [1] and 95.8 nM under setting [2].

“ACACAUGACGCGGCCGCCACUGCAACAUGAGGAUCACCCAUGUCACCCAUGUAUGACAUGAGGAUCAGGACCGGGCGUGUGUGGA [Same State Tryptophan B 3]”: the “apparent KD of MS2 coat protein” value was 615 nM (input ligand: arginine 13.2 mM); 566 nM (input ligand: none); 491 nM under setting [1]; 580 nM under setting [2]; 195 nM under setting [3].

Take “ACACAUGAGGAUCACCCAUGUCCAAUAGAUACCAGUGAUACGGUGCACCCUUGGCAGCUGUUACUGAGUGAUGGUUCCCUCGGAA [Same State Theophylline A GF3]”: the “apparent KD of MS2 coat protein” value runs as follows: (input ligand: arginine 13.2 mM) 48.1 nM; under setting [1], 81.9 nM; under setting [3], 58.7 nM.

“ACACAUGAGGAUCACCCAUGUGCGCUGGAAGGAGCGCAGAAUCAUGCAGGUAGGUCGCCAGUGCCCUCUACUAAAGGGAAAAGAG [Diatsoceri]”: the “apparent KD of MS2 coat protein” value (input ligand: arginine 13.2 mM) is 66.5 nM; the “apparent KD of MS2 coat protein” value (input ligand: none) stood at 72 nM; the “apparent KD of MS2 coat protein” value under setting [1] is 120 nM; the “apparent KD of MS2 coat protein” value under setting [2] turned out to be 92.9 nM; the “apparent KD of MS2 coat protein” value under setting [3] was determined as 68.5 nM.

For the sequence “ACACAUGAGGAUCACCCAUGUUGCAUAGAUACCAGAUAACGUGAGAUCCCUUGGCAGCUAACUGCAUGAACUUGACAUGCAUCAU [Same State Theophylline A 2]”, the “apparent KD of MS2 coat protein” value by setting is: (input ligand: arginine 13.2 mM) 44.2 nM; under setting [1], 88.7 nM; under setting [3], 53.5 nM.

As for “ACACAUGAGGAUCAUCCAUGUGCCCAUGAAGGAGCGUGGGAAACCACAGGUAGGUCGCAUGACAUGAGGAUCACCCAUGUUUAUU [#03 Exclusion - Arginine A]”, the “apparent KD of MS2 coat protein” value by setting is: (input ligand: arginine 13.2 mM) 66.6 nM; (input ligand: none) 204 nM; under setting [1], 203 nM; under setting [2], 366 nM; under setting [3], 209 nM.

Regarding “ACACGGGCAUGAGGAUCACCCAUGUAAUAACGAGGACCGGUACGGCCGCCACUCGUGCACCGUGACCUGUACGAAAAGUGCAGGA”, the “apparent KD of MS2 coat protein” value was found to be 13.6 nM (input ligand: arginine 13.2 mM); 20.8 nM (input ligand: none); 26.5 nM under setting [1]; 29.5 nM under setting [2]; 9.98 nM under setting [3].

For “ACACGUGAGGAUCAUCCAUGUGCCCAUGAAGGAGCGUGGGAAACCACAGGUAGGUCGCAUGACAUGAGGAUCACCCAUGUUUAUU [#04 Exclusion - Arginine A]”, the “apparent KD of MS2 coat protein” value reads like this: (input ligand: arginine 13.2 mM) 43.1 nM; (input ligand: none) 86.9 nM; under setting [1], 109 nM; under setting [2], 105 nM; under setting [3], 91 nM.

“ACAUCCAGGUUAAUCGUGGGCAUACUCGAUACCAGUAUUUUAAUCUACCCUUGGCAGCGACAUGAGGAUCACCCAUGUGCGAUGA [XTheo A #12]”: the “apparent KD of MS2 coat protein” value reads like this: (input ligand: arginine 13.2 mM) 11.7 nM; under setting [1], 14.1 nM; under setting [3], 13.4 nM.

For the sequence “ACAUGAAGAACAGCGGUGGGCGCGCUCGAUACCAGUACUUUAAAAUACCCUUGGCAGCGACAUGAGGAUCACCCAUGUGAGAUGA [XTheo A #4]”, the “apparent KD of MS2 coat protein” value is 15.3 nM (input ligand: arginine 13.2 mM), 18.5 nM under setting [1] and 18.5 nM under setting [3].

With “ACAUGAGGAUCACCCAUGUAAAUAACGGAAGGAGCGUGCGAAAGCACAGGUAGGUCGCCGAUAUAAAUAUUGGGUAUUAUAUUAU [#28 Exclusion - Arginine A]”, the “apparent KD of MS2 coat protein” value is, setting by setting: (input ligand: arginine 13.2 mM) 17.8 nM; (input ligand: none) 31.8 nM; under setting [1], 47.1 nM; under setting [2], 29.1 nM; under setting [3], 28.8 nM.
